In paper PMC8092134, “Cryptic β-Lactamase Evolution Is Driven by Low β-Lactam Concentrations” (mSphere, 2021):

Molecular target: the molecule itself
Assay: crystal structure; hanging drop, 5 mg/ml enzyme, 0.1 M Tris pH 9.0, 28 to 30% PEG mono ethylene ether 500, 4°C; soaked with ceftazidime; space group P2(1)2(1)2(1), four chains in the asymmetric unit

B1: OXA-48 variant L67F (enzyme)
chain: KEWQENKSWNAHFTEHKSQGVVVLWNENKQQGFTNNLKRANQAFFPASTFKIPNSLIALDLGVVKDEHQVFKWDGQTRDIATWNRDHNLITAMKYSVVPVYQEFARQIGEARMSKMLHAFDYGNEDISGNVDSFWLDGGIRISATEQISFLRKLYHNKLHVSERSQRIVKQAMLTEANGDYIIRAKTGYSTRIEPKIGWWVGWVELDDNVWFFAMNMDMPTSDGLGLRQAITKEVLKQEKIIP
modifications: carboxylated lysine at K73
notes: point mutation L67F made by site-directed mutagenesis; Crystals were soaked with ceftazidime; chains C and D carry a hydrolysed ceftazidime molecule; also called OXA-48 L67F; source: E. coli BL21 AI (pDEST17), purified
stoichiometry N: 2
